Measured values taken from paper PMC11227723.

Target: Tropomyosin receptor kinase B (human TrkB), stably expressed in NIH-3T3 cells (human) (UniProt Q16620)
Sequence of UniProt Q16620 (Q16620 32-822): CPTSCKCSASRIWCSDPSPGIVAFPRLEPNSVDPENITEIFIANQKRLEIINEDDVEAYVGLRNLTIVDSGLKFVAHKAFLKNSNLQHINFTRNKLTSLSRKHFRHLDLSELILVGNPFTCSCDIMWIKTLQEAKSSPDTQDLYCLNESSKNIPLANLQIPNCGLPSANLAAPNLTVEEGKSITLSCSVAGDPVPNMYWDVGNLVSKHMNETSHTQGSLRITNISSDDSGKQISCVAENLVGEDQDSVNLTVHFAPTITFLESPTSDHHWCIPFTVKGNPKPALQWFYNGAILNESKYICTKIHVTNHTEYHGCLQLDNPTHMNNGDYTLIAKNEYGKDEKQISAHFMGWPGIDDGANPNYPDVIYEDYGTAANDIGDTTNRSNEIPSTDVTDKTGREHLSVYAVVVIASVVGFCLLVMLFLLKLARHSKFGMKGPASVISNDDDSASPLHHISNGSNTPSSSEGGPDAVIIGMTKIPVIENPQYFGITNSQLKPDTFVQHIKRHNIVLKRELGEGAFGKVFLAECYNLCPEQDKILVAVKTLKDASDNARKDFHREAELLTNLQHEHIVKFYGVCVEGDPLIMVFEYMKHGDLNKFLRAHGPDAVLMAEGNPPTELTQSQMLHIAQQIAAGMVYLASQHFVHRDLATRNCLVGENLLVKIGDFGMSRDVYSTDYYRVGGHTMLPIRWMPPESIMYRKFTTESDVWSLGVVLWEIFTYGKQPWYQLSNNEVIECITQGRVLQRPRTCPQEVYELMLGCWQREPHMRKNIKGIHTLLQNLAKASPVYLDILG

- TrkB phosphorylation (Western blot of phosphorylated and total TrkB) in NIH-3T3-TrkB cells after 20 min with BDNF (500 ng/mL), fold change against the untreated control: 1.87 fold change
Substance: Brain-derived neurotrophic factor (ligand)
